{
  "source": "IntAct's records for PubMed 18976803",
  "parents": {"B1": {"name": "Protein LDB19 (Saccharomyces cerevisiae), Q12502 (parent)", "chain": "MAFSRLTSTHQSNHNGYSNSNKKGQSLPLTLSIDVESPPCVLYGSAMESSGAVLSGLFTVTVVDPYSSAEDKSLKNTESNVSTTSKSLKRKSTFGSALSSRLSSLSASTSNISPSTSSTSISHSPTPANLRIMAGYTKITITSVTLSLVQKIHFHKPFVPNISSMQTCMNCKTKITNMKSWEIQSNTQDLSVGSHSYPFSYLIPGSVPCSSSLGATAETQVKYELIAVVTYIDPHRNSFSSGHSTPRKEGSSSKKRLLQLAMPIAVTRSIPRGPDKNSLRVFPPTELTAAAVLPNVVYPKSTFPLEMKLDGVSSGDRRWRMRKLSWRIEETTRVKAHACPVHKHELRQLEEQVKIKESEKSKKPRSHIKRYGELGPQIRVAVNSLENMPSQRLPGEPGREQAPNSSGPASTGNVGLDDENPVNEDEEDQPGSEFIHPSDDALRQELLMQQQRARQQQLQQELKNNSSLFTEEVRIISKGEMKSGWKTDFDNNGKIELVTEIDCMGLNSGVSNPVMHASTLQTPSTGNKKPSINVACDIQDPNLGLYVSHILAVEIVVAEETLQYANGQPIRKPNSKNKKETNNNTMNVHNPDQRLAELSPIFANRNTPKVRRMGPEDITPVNSNKSNHSTNKEKASNGASNSNIVSVPTGAARVLRMQFRLTVTERSGLGISWDEEVPPIYQDVELLSPPCYELSINNGIKNKLYSTMSTPVRSEDDFVGGSDEDIGNYESQGLEPGPNVQEVTITQNKLTIPPTAHHYQPASSSQRSLTTVQSPPLESVVSVQGSVPFRGHVLTPHSTRDIRIQNFSDFLDSNRITQ"}},
  "data": [
    {"variants_of": "B1", "settings": "with rsp5_yeast RSP5, P39940", "values": [
      {"variant": "P679A;Y681A", "effect of a mutation on the interaction": "decreasing interaction"},
      {"variant": "P690A;Y692A", "effect of a mutation on the interaction": "decreasing interaction"}
    ]}
  ]
}
